Data: PMC7171158, “NusA directly interacts with antitermination factor Q from phage λ” (Scientific Reports, 2020)

Target: T1, NusA acidic repeat 2 domain (NusA-AR2) (E. coli, UniProt P0AFF6 426-495)
T1 construct: acidic repeat 2 domain (C-terminal domain) of E. coli NusA
Assay: NMR titration; 2H,15N-NusA-SKK titrated with NusA-AR2 and 15N-NusA-AR2 titrated with NusA-SKK (up to 1:7.5); 5 mm tubes; 298 K; 50 mM MOPS pH 6.5, 100 mM NaCl, 150 mM D-glucose, 5 mM DTT; two-state fit of chemical shift changes
Conditions: both partners purified

B1: NusA-SKK (S1, KH1 and KH2 domains of NusA) (domain or fragment)
chain: not shown
Q: For B1, which Kd is on record?
A: < 341 µM
